Laboratory results: US10653613B2, “Compositions comprising lysozyme hydrolysate for use in keratin-containing tissue” (DSM IP ASSETS B.V., priority 2013, dated 2020)

How the values were obtained:
[1] = Clinical trial: plasma Trp/LNAA ratio kinetics after a single drink; format: in vivo, humans
Experimental: (§1) Lysozyme is rich in Trp. […] A product data sheet is attached as FIG. 6. Study Procedures
(§2) Washout periods between treatments were at least three days. […] The study was composed of four visits.
(§3) They then ingested one of the experimental drinks.
(§4) Fluorescence-based detection is employed.
(§5) • For Trp and LNAA determination in the blood: Approx. […] After mixing, 2 μl was injected on the column. Statistical Considerations Descriptive Statistics
Plasma samples from each time point have been analysed for levels of Trp and LNAA, i.e. the sum of Val, Ile, Leu, Tyr, and Phe. The resulting Trp/LNAA ratio was plotted against time post consumption of the intervention product.

[2] = human, in vivo
Experimental: as §1, §2, §3, §4, §5

## intact lysozyme: A hen egg-derived protein rich in Trp; naturally occurring food protein that has not been altered
[1]; FIG. 2, comparison of the three treatments
  Shape of the plasma Trp/LNAA ratio increase over time (in words): much slower increase
[1]; plasma, 0-240 min after single drink, healthy volunteers, baseline AUC subtracted
  dAUC (baseline-corrected AUC of Trp/LNAA ratios), mean: 7.3
[2]
  Cysteine AUC (average): 999.7
  Cystine AUC (average): 10726.7
  Glutathione AUC (average): 255.7
